These results are taken from publication PMC4644379.

Experiment [1] has as its target NKG2D on human NK cells (human (endogenous in NK cells and CD8+ T cells from PBMC)) (UniProt P26718).
For experiment [2] the target is unchanged. The source holds these as a separate data set.
Experiment [3] has the same target. This is another data set of the same source.
Experiment [4] has the same target. The source holds these as a separate data set.
The target is the same in experiment [5]. The source holds these as a separate data set.
Experiment [6] has the same target. The source holds these as a separate data set.
For experiment [7] the target is unchanged. The source holds these as a separate data set.

Chain of UniProt P26718 (P26718 whole entry): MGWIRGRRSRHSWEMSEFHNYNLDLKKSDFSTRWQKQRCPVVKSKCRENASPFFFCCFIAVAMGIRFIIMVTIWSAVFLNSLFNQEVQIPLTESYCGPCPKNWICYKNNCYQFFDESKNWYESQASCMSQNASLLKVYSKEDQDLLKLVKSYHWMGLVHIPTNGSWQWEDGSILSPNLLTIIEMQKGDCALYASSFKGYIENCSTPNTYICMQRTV

The substance “MICA-129Met variant (MICA*00701 allele) expressed on L cells (from UniProt Q29983 24-383) (ligand)” had a regression coefficient of the MFI of CD107a on NK cells against MICA expression intensity on target clones in experiment [1] of 0.05. In experiment [2], this substance registered an IFNγ release (ELISA) of NK cells co-cultured 24 h with L cell clones, difference to L-MICA-129Val, adjusted for MICA expression (pg/ml higher than with L-MICA-129Val) of 176 and an IFNγ release (ELISA) of NK cells, effect of MICA expression intensity on target clones (pg/ml per MFI unit) of 0.142. In addition, in experiment [3], the down-regulation of NKG2D on NK cells co-cultured 4 and 24 h with L cell clones: MFI of NKG2D against L-con is 13.7 MFI units; the down-regulation of NKG2D on NK cells co-cultured 4 and 24 h with L cell clones: percentage of NKG2D+ NK cells against L-con worked out at 19.4 %-points; the down-regulation of NKG2D on NK cells: percentage of NKG2D+ cells, difference between L-MICA-129Met and L-MICA-129Val targets (%-points against L-MICA-129Val) was -9.3. In experiment [4], this substance displayed an NKG2D expression on CD56brightCD16+ NK cells after 4 and 24 h, lower with L-MICA-129Met than with L-MICA-129Val clones (%-points lower than with L-MICA-129Val) of 16.2; an NKG2D expression on CD56brightCD16- NK cells after 4 and 24 h, lower with L-MICA-129Met than with L-MICA-129Val clones (%-points lower than with L-MICA-129Val) of 15.8; an NKG2D expression on CD56dimCD16+ NK cells after 4 and 24 h, lower with L-MICA-129Met than with L-MICA-129Val clones (%-points lower than with L-MICA-129Val) of 19.5. This substance also yielded a regression coefficient of killing by LAK cells against MICA expression intensity on target clones in experiment [5] of -0.0834. Also, the regression coefficient of the MFI of IFNγ in CD56brightCD16- NK cells against MICA expression intensity in experiment [6] was -1.11. Moreover, in experiment [7], the down-regulation of NKG2D on CD8+ T cells co-cultured with L cell clones: MFI of NKG2D, difference to L-MICA-129Val (MFI units more than with L-MICA-129Val) was determined as 12.1 and the down-regulation of NKG2D on CD8+ T cells co-cultured with L cell clones: proportion of NKG2D+CD3+CD8+ cells, difference to L-MICA-129Val (%-points more than with L-MICA-129Val) came out at 35.8.

In experiment [1], “MICA-129Val variant (MICA*00701 with valine at position 129) expressed on L cells (from UniProt Q29983 24-383) (ligand)” displayed a degranulation of NK cells exposed to L cell clones: MFI of CD107a, difference to L-MICA-129Met, adjusted for MICA expression (MFI units lower than with L-MICA-129Met) of 38.5; a degranulation of NK cells exposed to L cell clones: percentage of CD107a+ NK cells, difference to L-MICA-129Met, adjusted for MICA expression (%-points less than with L-MICA-129Met) of 10.1; a regression coefficient of the MFI of CD107a on NK cells against MICA expression intensity on target clones of 0.29. Moreover, the IFNγ release (ELISA) of NK cells, effect of MICA expression intensity on target clones (pg/ml per MFI unit of MICA) in experiment [2] came out at 1.1. Besides, in experiment [3], the down-regulation of NKG2D on NK cells co-cultured 4 and 24 h with L cell clones: MFI of NKG2D against L-con is 11.8 MFI units; the down-regulation of NKG2D on NK cells co-cultured 4 and 24 h with L cell clones: percentage of NKG2D+ NK cells against L-con was 9.5 %-points. In experiment [5], this substance came in with a regression coefficient of killing by LAK cells against MICA expression intensity on target clones of 0.126 and a relative lysis of L cell clones by LAK cells (51Cr release, E:T 200:1), difference to L-MICA-129Met, adjusted for MICA expression (%-points reduced against L-MICA-129Met) of 13. In experiment [6], the intracellular IFNγ (MFI) in CD56brightCD16- NK cells co-cultured 4 h with L cell clones, difference to L-MICA-129Met (MFI units lower than with L-MICA-129Met) was 12.5; the percentage of IFNγ+ CD56brightCD16- NK cells co-cultured 4 h with L cell clones, difference to L-MICA-129Met (%-points less than with L-MICA-129Met) stood at 7.5; the regression coefficient of the MFI of IFNγ in CD56brightCD16- NK cells against MICA expression intensity came out at 0.09; the regression coefficient of the proportion of IFNγ+ CD56brightCD16- NK cells against MICA expression intensity came out at 0.14.
